The results in this text go back to patent publication US20040235744A1.

The target in data set [1] is nNOS-II (novel constitutive neuronal nitric oxide synthase purified from rat cerebellum) (rat). The data set is described as follows: enzyme inhibition kinetics on purified nNOS-II, competitive against BK as substrate, oxyhemoglobin assay, EZ-FIT.
The target is the same in data set [2]. Described as above. The source holds these as a separate data set.
Data set [3] relates to Poly-arginine (Mr 5,000).
Data set [4] relates to T1, Cit^1-BK.
T1 sequence: XPPGFSPFR

Data set [5] relates to T2, Met-Lys-BK.
T2 sequence: MKRPPGFSPFR

For data set [6], the system named is T3, BK fragment 1-7.
T3 sequence: RPPGFSP

Data set [7] deals with T4, BK fragment 1-5.
T4 sequence: RPPGF

Data set [8] relates to T5, [Lys^1]-BK.
T5 sequence: KPPGFSPFR

The test system of data set [9] is T6, BK fragment 2-7.
T6 sequence: PPGFSP

The test system of data set [10] is T7, Lys-BK.
T7 sequence: KRPPGFSPFR

Data set [11] relates to bradykinin (Arg-Pro-Pro-Gly-Phe-Ser-Pro-Phe-Arg).
For data set [12], the system named is T8, Ile-Ser-BK.
T8 sequence: ISRPPGFSPFR

Data set [13] deals with T9, Des-Arg^1-BK.
T9 sequence: PPGFSPFA

Like-named read-outs stand apart in the source and are kept apart here.

As a reminder, the Ki is the equilibrium dissociation constant of an inhibitor or competing ligand from its target. Low values mean a stronger hold on the target, high ones a looser hold on the target. Regarding “[N-adamantaneacetyl-D-Arg^0, Hyp^3, Thi^5,8, D-Phe^7]-BK (peptide)”, the results for the inhibitory constant (Ki) in data set [1] and in [2] were 2.5 µM and 2500 µM, respectively.

Regarding “nNOS-II (novel constitutive neuronal nitric oxide synthase purified from rat cerebellum)”, the Relative activity (%) as substrate, L-arginine = 100% in data set [3] came to 30%; in data set [5], 0%; in data set [6], 80%; in data set [7], 61%; in data set [8] it was 113%; in [9], 0%. The Relative activity (%) as substrate, L-arginine = 100% amounted to 116% in data set [10], 125% in [11], 110% in data set [12] and 94% in [13]. For the same substance, the “apparent KM (NOS activity, oxyhemoglobin assay)” value is “Apparent KM values for BK and Cit^1-BK were 8.5 and 6.2 µM, respectively” in data set [4]; “Apparent KM values for BK and Cit^1-BK were 8.5 and 6.2 µM, respectively” in data set [11]. Also, the “apparent Vmax (NOS activity, oxyhemoglobin assay)” value was “apparent Vmax values for BK and Cit^1-BK were 1.2 and 1.6 µmol/min/mg protein, respectively” in data set [4]; “apparent Vmax values for BK and Cit^1-BK were 1.2 and 1.6 µmol/min/mg protein, respectively” in [11].
